The target in one assay is T1, recombinant bovine ENOS (Bos taurus, UniProt P29473).
T1 construct: made in house; host or cells: E. coli
T1 sequence (P29473 1-1205): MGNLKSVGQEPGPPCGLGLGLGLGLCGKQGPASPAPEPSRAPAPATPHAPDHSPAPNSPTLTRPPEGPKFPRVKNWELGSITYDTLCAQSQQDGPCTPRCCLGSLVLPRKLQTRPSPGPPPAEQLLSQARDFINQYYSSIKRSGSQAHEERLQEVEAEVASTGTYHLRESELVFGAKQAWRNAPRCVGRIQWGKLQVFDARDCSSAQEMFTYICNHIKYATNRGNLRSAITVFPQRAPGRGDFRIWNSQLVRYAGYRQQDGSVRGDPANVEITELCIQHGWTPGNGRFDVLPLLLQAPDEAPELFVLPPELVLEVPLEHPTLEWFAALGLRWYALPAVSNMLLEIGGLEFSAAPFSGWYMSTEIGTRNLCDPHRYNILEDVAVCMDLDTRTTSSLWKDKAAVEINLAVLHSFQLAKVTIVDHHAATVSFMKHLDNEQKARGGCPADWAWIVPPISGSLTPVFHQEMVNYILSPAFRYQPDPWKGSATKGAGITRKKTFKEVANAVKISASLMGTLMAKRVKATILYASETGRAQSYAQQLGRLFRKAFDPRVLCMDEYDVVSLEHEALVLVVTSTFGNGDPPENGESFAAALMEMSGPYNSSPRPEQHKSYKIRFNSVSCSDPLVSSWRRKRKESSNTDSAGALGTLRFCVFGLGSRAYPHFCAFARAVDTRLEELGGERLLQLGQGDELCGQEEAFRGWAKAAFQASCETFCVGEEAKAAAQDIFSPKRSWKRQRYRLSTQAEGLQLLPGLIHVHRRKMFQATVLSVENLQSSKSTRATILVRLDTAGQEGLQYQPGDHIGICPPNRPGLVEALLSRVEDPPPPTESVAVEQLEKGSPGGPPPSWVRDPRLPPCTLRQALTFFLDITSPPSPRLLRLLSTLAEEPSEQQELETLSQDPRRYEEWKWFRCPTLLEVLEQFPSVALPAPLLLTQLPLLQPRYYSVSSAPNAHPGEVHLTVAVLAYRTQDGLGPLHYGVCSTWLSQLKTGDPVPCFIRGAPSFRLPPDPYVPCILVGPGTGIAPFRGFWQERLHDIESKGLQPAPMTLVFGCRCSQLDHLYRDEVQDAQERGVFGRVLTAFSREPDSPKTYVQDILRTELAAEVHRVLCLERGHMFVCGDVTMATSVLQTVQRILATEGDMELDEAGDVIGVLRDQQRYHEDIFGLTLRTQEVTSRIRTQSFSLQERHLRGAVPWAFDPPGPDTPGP
The assay is described as follows: NOS activity, kinetic 96-well microtiter plate assay, NADPH consumption. The class given is biochemical. Conditions: peptide 100 μg/ml; mean ± SEM, triplicate. On the procedure: (§1) NOS activity measurements were performed using recombinant rat NNOS (purified from overexpressing HEK293 cells), recombinant bovine ENOS (purified from overexpressing E. coli) or native INOS (from immunostimulant-activated rat aortic smooth muscle cells). Activity was determined with 1-20 pmole of NOS using a kinetic 96-well microtiter plate assay based on the kinetics of NADPH consumption (NNOS and ENOS) or Fe^2+-myoglobin oxidation. Radioligand binding was performed after incubation of 1-2 pmole of NOS for 15 minutes at 23° C. with either Bolton-Hunter labelled [125I]-calmodulin (1 nM) or [3H]-N-nitro-L-arginine (200 pM) and the indicated peptides. Values are means ±SEM of triplicate determinations.

A further assay concerns the target T2, recombinant rat NNOS (Rattus norvegicus, UniProt P29476).
T2 construct: made in house; host or cells: HEK293 cells
The assay is described as above. In kind it is biochemical. Conditions: peptide 100 μg/ml; mean ± SEM, triplicate. On the procedure: as §1

The target in assay [1] is T3, native INOS (from immunostimulant-activated rat aortic smooth muscle cells) (Rattus norvegicus, UniProt Q06518).
T3 construct: endogenous in cells
The assay is described as follows: NOS activity, kinetic 96-well microtiter plate assay, Fe2+-myoglobin oxidation. The class given is biochemical. The conditions noted are these: peptide 100 μg/ml; mean ± SEM, triplicate. On the procedure:
as §1

For the next assay, the target named is T4, ENOS (Bos taurus, UniProt P29473).
T4 sequence (P29473 2-1205): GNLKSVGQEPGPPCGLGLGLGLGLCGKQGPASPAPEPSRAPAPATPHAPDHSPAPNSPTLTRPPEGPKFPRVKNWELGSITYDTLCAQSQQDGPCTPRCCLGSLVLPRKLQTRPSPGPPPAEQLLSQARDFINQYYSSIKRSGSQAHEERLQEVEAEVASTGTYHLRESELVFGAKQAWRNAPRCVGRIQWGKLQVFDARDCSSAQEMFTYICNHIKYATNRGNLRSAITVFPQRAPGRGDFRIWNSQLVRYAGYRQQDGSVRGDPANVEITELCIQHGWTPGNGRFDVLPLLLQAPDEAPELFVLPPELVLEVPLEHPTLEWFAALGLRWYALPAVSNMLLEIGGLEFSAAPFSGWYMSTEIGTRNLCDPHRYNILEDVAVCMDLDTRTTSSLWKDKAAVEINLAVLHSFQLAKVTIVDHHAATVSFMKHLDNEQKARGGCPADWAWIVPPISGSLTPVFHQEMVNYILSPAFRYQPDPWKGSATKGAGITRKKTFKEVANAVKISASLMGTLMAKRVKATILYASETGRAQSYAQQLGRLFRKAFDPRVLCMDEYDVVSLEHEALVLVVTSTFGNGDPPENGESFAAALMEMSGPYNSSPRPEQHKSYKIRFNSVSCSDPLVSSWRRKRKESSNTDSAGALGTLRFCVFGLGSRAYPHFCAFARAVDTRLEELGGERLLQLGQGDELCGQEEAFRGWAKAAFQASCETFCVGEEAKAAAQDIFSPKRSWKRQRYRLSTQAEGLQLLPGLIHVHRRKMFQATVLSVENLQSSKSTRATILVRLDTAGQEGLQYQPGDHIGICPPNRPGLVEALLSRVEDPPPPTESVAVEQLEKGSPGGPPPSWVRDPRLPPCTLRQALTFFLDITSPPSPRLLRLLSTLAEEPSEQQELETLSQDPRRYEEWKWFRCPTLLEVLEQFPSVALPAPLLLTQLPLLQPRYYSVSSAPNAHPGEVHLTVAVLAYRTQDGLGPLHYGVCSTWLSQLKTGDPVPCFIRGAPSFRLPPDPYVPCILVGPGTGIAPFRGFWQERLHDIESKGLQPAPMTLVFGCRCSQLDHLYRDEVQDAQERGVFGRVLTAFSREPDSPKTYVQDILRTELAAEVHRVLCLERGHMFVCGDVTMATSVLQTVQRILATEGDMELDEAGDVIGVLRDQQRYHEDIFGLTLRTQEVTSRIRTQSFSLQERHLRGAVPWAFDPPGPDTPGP
The assay is described as follows: Effects on calmodulin binding (Example 3), ENOS. From the text: (§2) In addition to the inhibition of enzyme activity, it is possible to modulate CAM binding to NOS with synthetic homologs of the control site elements. The relationship between enzyme inhibition and CAM binding in the presence of control site elements can be complex. In other systems, antibodies to inhibitory elements sometimes induce partial CAM independent activation, while preventing CAM dependent activation. It is important to remember that CAM binding is only a means to displace the inhibitor.
(§3) While a number of the polypeptides could modulate CAM binding, the series containing the RRKRK (SEQ ID NO: 10) motif was the most instructive. […] CAM binding was decreased almost to background levels, with effects seen at the 10 uM level.

The target of assay [2] is T5, NNOS (Rattus norvegicus, UniProt P29476). The experiment in a line: Effects on calmodulin binding (Example 3), NNOS.
T5 sequence (P29476 whole entry): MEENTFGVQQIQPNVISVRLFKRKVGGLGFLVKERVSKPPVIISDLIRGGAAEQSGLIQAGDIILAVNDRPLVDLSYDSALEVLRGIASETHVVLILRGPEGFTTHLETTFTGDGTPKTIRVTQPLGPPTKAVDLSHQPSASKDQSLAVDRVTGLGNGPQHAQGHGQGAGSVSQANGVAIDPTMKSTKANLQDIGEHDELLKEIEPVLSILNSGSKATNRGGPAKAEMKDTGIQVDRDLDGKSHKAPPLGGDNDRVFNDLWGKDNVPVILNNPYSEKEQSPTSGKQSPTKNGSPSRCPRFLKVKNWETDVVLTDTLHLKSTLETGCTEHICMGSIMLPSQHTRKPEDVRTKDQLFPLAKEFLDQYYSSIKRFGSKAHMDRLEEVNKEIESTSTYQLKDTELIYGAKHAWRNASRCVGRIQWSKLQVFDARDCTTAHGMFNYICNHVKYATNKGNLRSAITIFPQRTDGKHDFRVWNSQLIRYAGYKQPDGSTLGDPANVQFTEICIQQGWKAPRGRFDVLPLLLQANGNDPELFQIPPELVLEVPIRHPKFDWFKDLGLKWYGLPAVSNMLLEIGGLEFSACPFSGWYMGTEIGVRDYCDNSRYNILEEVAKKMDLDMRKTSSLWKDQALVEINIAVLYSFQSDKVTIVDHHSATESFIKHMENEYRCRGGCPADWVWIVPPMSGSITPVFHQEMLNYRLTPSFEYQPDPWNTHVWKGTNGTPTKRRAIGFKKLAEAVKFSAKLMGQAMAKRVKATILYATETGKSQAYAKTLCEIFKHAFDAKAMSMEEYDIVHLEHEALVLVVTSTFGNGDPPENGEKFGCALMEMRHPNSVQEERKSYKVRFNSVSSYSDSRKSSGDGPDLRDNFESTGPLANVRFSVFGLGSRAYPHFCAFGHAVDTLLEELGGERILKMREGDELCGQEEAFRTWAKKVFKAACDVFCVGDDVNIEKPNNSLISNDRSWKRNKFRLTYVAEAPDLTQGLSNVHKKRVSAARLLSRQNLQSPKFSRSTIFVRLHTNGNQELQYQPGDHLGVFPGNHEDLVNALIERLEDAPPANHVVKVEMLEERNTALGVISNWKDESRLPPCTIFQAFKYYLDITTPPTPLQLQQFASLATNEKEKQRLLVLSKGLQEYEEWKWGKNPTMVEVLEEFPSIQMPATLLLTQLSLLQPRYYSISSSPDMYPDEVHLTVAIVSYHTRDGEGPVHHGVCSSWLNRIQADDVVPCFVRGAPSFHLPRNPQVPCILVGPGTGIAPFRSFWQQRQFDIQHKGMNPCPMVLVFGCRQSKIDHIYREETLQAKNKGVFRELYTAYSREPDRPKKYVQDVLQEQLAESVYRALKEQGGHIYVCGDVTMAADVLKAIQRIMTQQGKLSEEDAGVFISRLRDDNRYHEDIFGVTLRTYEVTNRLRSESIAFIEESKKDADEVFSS
Description: as §2, §3

A further assay deals with INOS (Rattus norvegicus, UniProt Q06518). The experiment in a line: INOS activity by oxidation of ferrous myoglobin by product NO. The conditions noted are these: peptide 0.1 mg/ml; no peptide: 14.9 ± .56. The class given is biochemical. The arrangement: unit not given here. The protocol: (§4) JX series polypeptides are approximately 30-mers derived from ENOS and NNOS inhibitory polypeptides. B058 series are shorter (6-mers to 15-mers) peptides derived from flanking loops or from shorter segments of inhibitory polypeptides. CAM binding data represents counts from radiolabeled CAM trapped on a membrane by NNOS adhesion. INOS activity was assayed by measuring oxidation of ferrous myoglobin by product NO.

For assay [3], the target named is T5, NNOS. The assay is described as follows: CAM binding: radiolabeled CAM trapped on a membrane by NNOS adhesion. Conditions: no peptide: 774 ± 40. The protocol:
as §4

The test system of assay [4] is NOS. The experiment in a line: Radioligand binding of [3H]-N-nitro-L-arginine to NOS. Details: scale not given here. Conditions: peptide 100 μg/ml; ligand 200 pM, 15 minutes at 23° C.; mean ± SEM. The protocol:
as §1

The test system of assay [5] is NOS. The assay is described as follows: Radioligand binding of [125I]-calmodulin to NOS. The arrangement: scale not given here. Conditions: peptide 100 μg/ml; ligand 1 nM, 15 minutes at 23° C.; mean ± SEM. The protocol: as §1

T2 sequence (P29476 whole entry): as above

Regarding “SSWRRKRKESS [BO58-08, 13; b114 cites it by residues 4-11]”, the “NOS Activity (% of control) ENOS” value with recombinant bovine ENOS was 27.7 ± 2.0 % of control. For the same sequence, the “NOS Activity (% of control) NNOS” value in the assay with recombinant rat NNOS was 19.1 ± 0.9 % of control. Moreover, the “NOS Activity (% of control) INOS” value in assay [1] is given as 92.1 ± 1.3 % of control. In the assay with ENOS, the “effect on CAM binding to ENOS (in words)” value is “potent CAM antagonist”. The “level at which effects on CAM binding are seen” value in the assay with ENOS (ENOS) and in the assay with NNOS [2] (NNOS) was 10 µM in each case. In addition, the “effect on CAM binding to NNOS (in words)” value with NNOS [2] is “potent CAM antagonist”. The “INOS Activity 0.1 mg/ml” value with INOS was 14.5 ± .70. For the same sequence, in the assay with NNOS [3], the “NNOS CAM Binding” value is listed as 152 ± 26 counts. Moreover, the “Ligand binding to NOS [3H]-NHA” value in the assay with NOS [4] is reported as 120.7 ± 12.7. Further, the “Ligand binding to NOS [125I]-CAM” value in the assay with NOS [5] is listed as 0.0 ± 0.5.

Values taken from patent US6750197B1, “Activators of endothelial nitric oxide synthase” (Rensselaer Polytechnic Institute, priority 1996, dated 2004).
